Paper PMC9018508

Target: CD40L (UniProt P29965)
Experiment: SPR

Sequence of UniProt P29965 (P29965 116-261): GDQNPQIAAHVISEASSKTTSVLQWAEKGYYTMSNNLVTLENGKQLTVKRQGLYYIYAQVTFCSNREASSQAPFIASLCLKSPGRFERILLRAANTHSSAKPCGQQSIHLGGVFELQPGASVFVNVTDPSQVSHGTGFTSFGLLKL

Which Kd does the source give for 5c8Ile^L98 → 7-HCAA Fab here?
Its Kd is 41.6 nM.
